Data as given in IntAct's records for PubMed 8174709.

B1: Ferredoxin--NADP reductase, chloroplastic (Spinacia oleracea (Spinach)), P00455 (parent)
chain: MTTAVTAAVSFPSTKTTSLSARSSSVISPDKISYKKVPLYYRNVSATGKMGPIRAQIASDVEAPPPAPAKVEKHSKKMEEGITVNKFKPKTPYVGRCLLNTKITGDDAPGETWHMVFSHEGEIPYREGQSVGVIPDGEDKNGKPHKLRLYSIASSALGDFGDAKSVSLCVKRLIYTNDAGETIKGVCSNFLCDLKPGAEVKLTGPVGKEMLMPKDPNATIIMLGTGTGIAPFRSFLWKMFFEKHDDYKFNGLAWLFLGVPTSSSLLYKEEFEKMKEKAPDNFRLDFAVSREQTNEKGEKMYIQTRMAQYAVELWEMLKKDNTYFYMCGLKGMEKGIDDIMVSLAAAEGIDWIEYKRQLKKAEQWNVEVY

Variants of: B1
Details: with fer1_spiol PETF

Row | effect of a mutation on the interaction | Variant
1 | decreasing interaction | K88Q
